In the supplement of paper PMC11908140:

B1: library; numbered along this chain (parent)
chain: MRKPRAAVGSGHRKQAASQEGRQKHAKNNSQAKPSACDGLARQPEEVVLQASVSSYHLFRDVAEVTAFRGSLLSWYDQEKRDLPWRRRAEDEMDLDRRAYAVWVSEVMLQQTQVATVINYYTGWMQKWPTLQDLASASLEEVNQLWAGLGYYSRGRRLQEGARKVVEELGGHMPRTAETLQQLLPGVGRYTAGAIASIAFGQATGVVDGNVARVLCRVRAIGADPSSTLVSQQLWGLAQQLVDPARPGDFNQAAMELGATVCTPQRPLCSQCPVESLCRARQRVEQEQLLASGSLSGSPDVEECAPNTGQCHLCLPPSEPWDQTLGVVNFPRKASRKPPREESSATCVLEQPGALGAQILLVQRPNSGLLAGLWEFPSVTWEPSEQLQRKALLQELQRWAGPLPATHLRHLGEVVHTFSHIKLTYQVYGLALEGQTPVTTVPPGARWLTQEEFHTAAVSTAMKKVFRVYQGQQPGTCMGSKRSQVSSPCSRKKPRMGQQVLDNFFRSHISTDAHSLNSAAQ

Variants of: B1
Assay: 8OG:A repair function score (normalized; synonymous = 0, nonsense = -1) (normalized log-likelihood score); higher = more repair activity (WT-like)
Conditions: with 8OG:A DNA repair reporter (GFP) in HEK-293 MUTYH KO cells
Procedure, shortened: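 GFP+ (repair) and GFP− bins of viable mCherry+ cells were collected at 72 h from MUTYH knockout HEK-293 cells bearing lentiviral MUTYH cDNA NNN codon-scan libraries in 10 pg/ml doxycycline, co-transfected with an 8OG:A GFP repair reporter and mCherry. Tile amplicons were sequenced, and per-tile Rosace fitness scores were normalized to a repair function score anchored on synonymous and nonsense distributions. Synonymous medians were set to 0 and nonsense to -1, with variants under 300 counts per million at the start removed.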
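Note: cells sorted at 72 h after reporter transfection.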

| Variant | 8OG:A repair function score |
| --- | --- |
| MRKPRAAVGSGHRKQAASQEGRQKHAKNNSQAKPSACDGLARQPEEVVLQASVSSYHLFRDVAEVTAFRGSLLSWYDQEKRDLPWRRRAEDEMDLDRRAYAVWVSEVMLQQTQVATVINYYTGWMQKWPTLQDLASASLEEVNQLWAGLGYYSRGRRLQEGARKVVEELGGHMPRTAETLQQLLPGVGRYTAGAIASIAFGQATGVVDGNVARVLCRVRAIGADPSSTLVSQQLWGLAQQLVDPARPGDFNQAAMELGATVCTPQRPLCSQCPVESLCRARQRVEQEQLLASGSLSGSPDVEECAPNTGQCHLCLPPSEPWDQTLGVVNFPRKASRKPPREESSATCVLEQPGALGAQILLVQRPNSGLLAGLWEFPSVTWEPSEQLQRKALLQELQRCAGPLPATHLRHLGEVVHTFSHIKLTYQVYGLALEGQTPVTTVPPGARWLTQEEFHTAAVSTAMKKVFRVYQGQQPGTCMGSKRSQVSSPCSRKKPRMGQQVLDNFFRSHISTDAHSLNSAAQ [W399C] | 0.313 |
| MRKPRAAVGSGHRKQAASQEGRQKHAKNNSQAKPSACDGLARQPEEVVLQASVSSYHLFRDVAEVTAFRGSLLSWYDQEKRDLPWRRRAEDEMDLDRRAYAVWVSEVMLQQTQVATVINYYTGWMQKWPTLQDLASASLEEVNQLWAGLGYYSRGRRLQEGARKVVEELGGHMPRTAETLQQLLPGVGRYTAGAIASIAFGQATGVVDGNVARVLCRVRAIGADPSSTLVSQQLWGLAQQLVDPARPGDFNQAAMELGATVCTPQRPLCSQCPVESLCRARQRVEQEQLLASGSLSGSPDVEECAPNTGQCHLCLPPSEPWDQTLGVVNFPRKASRKPPREESSATCVLEQPGALGAQILLVQRPNSGLLAGLWEFPSVTWEPSEQLQRKALLQELQREAGPLPATHLRHLGEVVHTFSHIKLTYQVYGLALEGQTPVTTVPPGARWLTQEEFHTAAVSTAMKKVFRVYQGQQPGTCMGSKRSQVSSPCSRKKPRMGQQVLDNFFRSHISTDAHSLNSAAQ [W399E] | -0.679 |
| MRKPRAAVGSGHRKQAASQEGRQKHAKNNSQAKPSACDGLARQPEEVVLQASVSSYHLFRDVAEVTAFRGSLLSWYDQEKRDLPWRRRAEDEMDLDRRAYAVWVSEVMLQQTQVATVINYYTGWMQKWPTLQDLASASLEEVNQLWAGLGYYSRGRRLQEGARKVVEELGGHMPRTAETLQQLLPGVGRYTAGAIASIAFGQATGVVDGNVARVLCRVRAIGADPSSTLVSQQLWGLAQQLVDPARPGDFNQAAMELGATVCTPQRPLCSQCPVESLCRARQRVEQEQLLASGSLSGSPDVEECAPNTGQCHLCLPPSEPWDQTLGVVNFPRKASRKPPREESSATCVLEQPGALGAQILLVQRPNSGLLAGLWEFPSVTWEPSEQLQRKALLQELQRAAGPLPATHLRHLGEVVHTFSHIKLTYQVYGLALEGQTPVTTVPPGARWLTQEEFHTAAVSTAMKKVFRVYQGQQPGTCMGSKRSQVSSPCSRKKPRMGQQVLDNFFRSHISTDAHSLNSAAQ [W399A] | -0.229 |
| MRKPRAAVGSGHRKQAASQEGRQKHAKNNSQAKPSACDGLARQPEEVVLQASVSSYHLFRDVAEVTAFRGSLLSWYDQEKRDLPWRRRAEDEMDLDRRAYAVWVSEVMLQQTQVATVINYYTGWMQKWPTLQDLASASLEEVNQLWAGLGYYSRGRRLQEGARKVVEELGGHMPRTAETLQQLLPGVGRYTAGAIASIAFGQATGVVDGNVARVLCRVRAIGADPSSTLVSQQLWGLAQQLVDPARPGDFNQAAMELGATVCTPQRPLCSQCPVESLCRARQRVEQEQLLASGSLSGSPDVEECAPNTGQCHLCLPPSEPWDQTLGVVNFPRKASRKPPREESSATCVLEQPGALGAQILLVQRPNSGLLAGLWEFPSVTWEPSEQLQRKALLQELQRDAGPLPATHLRHLGEVVHTFSHIKLTYQVYGLALEGQTPVTTVPPGARWLTQEEFHTAAVSTAMKKVFRVYQGQQPGTCMGSKRSQVSSPCSRKKPRMGQQVLDNFFRSHISTDAHSLNSAAQ [W399D] | -0.666 |
| MRKPRAAVGSGHRKQAASQEGRQKHAKNNSQAKPSACDGLARQPEEVVLQASVSSYHLFRDVAEVTAFRGSLLSWYDQEKRDLPWRRRAEDEMDLDRRAYAVWVSEVMLQQTQVATVINYYTGWMQKWPTLQDLASASLEEVNQLWAGLGYYSRGRRLQEGARKVVEELGGHMPRTAETLQQLLPGVGRYTAGAIASIAFGQATGVVDGNVARVLCRVRAIGADPSSTLVSQQLWGLAQQLVDPARPGDFNQAAMELGATVCTPQRPLCSQCPVESLCRARQRVEQEQLLASGSLSGSPDVEECAPNTGQCHLCLPPSEPWDQTLGVVNFPRKASRKPPREESSATCVLEQPGALGAQILLVQRPNSGLLAGLWEFPSVTWEPSEQLQRKALLQELQRGAGPLPATHLRHLGEVVHTFSHIKLTYQVYGLALEGQTPVTTVPPGARWLTQEEFHTAAVSTAMKKVFRVYQGQQPGTCMGSKRSQVSSPCSRKKPRMGQQVLDNFFRSHISTDAHSLNSAAQ [W399G] | -0.541 |
| MRKPRAAVGSGHRKQAASQEGRQKHAKNNSQAKPSACDGLARQPEEVVLQASVSSYHLFRDVAEVTAFRGSLLSWYDQEKRDLPWRRRAEDEMDLDRRAYAVWVSEVMLQQTQVATVINYYTGWMQKWPTLQDLASASLEEVNQLWAGLGYYSRGRRLQEGARKVVEELGGHMPRTAETLQQLLPGVGRYTAGAIASIAFGQATGVVDGNVARVLCRVRAIGADPSSTLVSQQLWGLAQQLVDPARPGDFNQAAMELGATVCTPQRPLCSQCPVESLCRARQRVEQEQLLASGSLSGSPDVEECAPNTGQCHLCLPPSEPWDQTLGVVNFPRKASRKPPREESSATCVLEQPGALGAQILLVQRPNSGLLAGLWEFPSVTWEPSEQLQRKALLQELQRFAGPLPATHLRHLGEVVHTFSHIKLTYQVYGLALEGQTPVTTVPPGARWLTQEEFHTAAVSTAMKKVFRVYQGQQPGTCMGSKRSQVSSPCSRKKPRMGQQVLDNFFRSHISTDAHSLNSAAQ [W399F] | -0.284 |
